The record followed here is publication PMC13534707, “Vps1 drives membrane constriction and fission necessary for endosomal protein sorting” (The EMBO Journal, 2026).

By stoichiometry N is commonly meant the number of molecules, sites or subunits per partner or assembly.

Data set [1] addresses Vps1(ΔInsB) (S. cerevisiae) (UniProt P21576). As to the kind of experiment: SEC-MALS; purified Vps1 (~0.32 mg/ml) on Superose 6 10/300 GL, 20 mM HEPES pH 7.5, 150 mM NaCl, room temperature; self-association in solution.
Data set [2] concerns the molecule itself. Described as above.

Molecule “Vps1(ΔInsB) (from UniProt P21576 1-535; P21576 613-704) (enzyme)” came in with a stoichiometry N in data set [1] of 2.

B1: Vps1(Δ4F) (enzyme, S. cerevisiae, UniProt P21576 1-704, looked up)
chain: MDEHLISTINKLQDALAPLGGGSQSPIDLPQITVVGSQSSGKSSVLENIVGRDFLPRGTGIVTRRPLVLQLINRRPKKSEHAKVNQTANELIDLNINDDDKKKDESGKHQNEGQSEDNKEEWGEFLHLPGKKFYNFDEIRKEIVKETDKVTGANSGISSVPINLRIYSPHVLTLTLVDLPGLTKVPVGDQPPDIERQIKDMLLKYISKPNAIILSVNAANTDLANSDGLKLAREVDPEGTRTIGVLTKVDLMDQGTDVIDILAGRVIPLRYGYIPVINRGQKDIEHKKTIREALENERKFFENHPSYSSKAHYCGTPYLAKKLNSILLHHIRQTLPEIKAKIEATLKKYQNELINLGPETMDSASSVVLSMITDFSNEYAGILDGEAKELSSQELSGGARISYVFHETFKNGVDSLDPFDQIKDSDIRTIMYNSSGSAPSLFVGTEAFEVLVKQQIRRFEEPSLRLVTLVFDELVRMLKQIISQPKYSRYPALREAISNQFIQFLKDATIPTNEFVVDIIKAEQTYINTAHPDLLKGSQAMVMVEEKLHPRQVAVDPKTGKPLPTQPSSSKAPVMEEKTKNKKKLAALESPPPVLKATGQMTERETMETEVIKLLISSYFSIVKRTIADIIPKALMLKLIVKSKTDIQKVLLEKLYGKQDIEELTKENDITIQRRKECKKMVEILRNASQIVSSV
notes: Vps1, S. cerevisiae, lacking the phenylalanine-rich 4F motif (residues 579-587) of Insert B; Same tags as m1; source: bacterially expressed, T7 Express (NEB), purified (Strep-trap HP or Streptactin XT)
In the case of B1, in data set [2], the “stoichiometry N” value turned out to be 4.

B2: Vacuolar protein sorting-associated protein 1 (Vps1), wild type, recombinant (enzyme, S. cerevisiae, UniProt P21576 1-704, looked up)
chain: MDEHLISTINKLQDALAPLGGGSQSPIDLPQITVVGSQSSGKSSVLENIVGRDFLPRGTGIVTRRPLVLQLINRRPKKSEHAKVNQTANELIDLNINDDDKKKDESGKHQNEGQSEDNKEEWGEFLHLPGKKFYNFDEIRKEIVKETDKVTGANSGISSVPINLRIYSPHVLTLTLVDLPGLTKVPVGDQPPDIERQIKDMLLKYISKPNAIILSVNAANTDLANSDGLKLAREVDPEGTRTIGVLTKVDLMDQGTDVIDILAGRVIPLRYGYIPVINRGQKDIEHKKTIREALENERKFFENHPSYSSKAHYCGTPYLAKKLNSILLHHIRQTLPEIKAKIEATLKKYQNELINLGPETMDSASSVVLSMITDFSNEYAGILDGEAKELSSQELSGGARISYVFHETFKNGVDSLDPFDQIKDSDIRTIMYNSSGSAPSLFVGTEAFEVLVKQQIRRFEEPSLRLVTLVFDELVRMLKQIISQPKYSRYPALREAISNQFIQFLKDATIPTNEFVVDIIKAEQTYINTAHPDLLKGSQAMVMVEEKLHPRQVAVDPKTGKPLPTQPSSSKAPVMEEKSGFFGGFFSTKNKKKLAALESPPPVLKATGQMTERETMETEVIKLLISSYFSIVKRTIADIIPKALMLKLIVKSKTDIQKVLLEKLYGKQDIEELTKENDITIQRRKECKKMVEILRNASQIVSSV
notes: Vps1, S. cerevisiae; the Vps1 gene amplified from genomic DNA and cloned into pET15b; A TEV site follows the N-terminal 6xHis tag; also called WT; wild-type Vps1; source: bacterially expressed, T7 Express (NEB), purified (Strep-trap HP or Streptactin XT)
For B2, the binding result in data set [2] is “binds”.

B3: Vps1(G436D) (enzyme, S. cerevisiae, UniProt P21576 1-704, looked up)
chain: MDEHLISTINKLQDALAPLGGGSQSPIDLPQITVVGSQSSGKSSVLENIVGRDFLPRGTGIVTRRPLVLQLINRRPKKSEHAKVNQTANELIDLNINDDDKKKDESGKHQNEGQSEDNKEEWGEFLHLPGKKFYNFDEIRKEIVKETDKVTGANSGISSVPINLRIYSPHVLTLTLVDLPGLTKVPVGDQPPDIERQIKDMLLKYISKPNAIILSVNAANTDLANSDGLKLAREVDPEGTRTIGVLTKVDLMDQGTDVIDILAGRVIPLRYGYIPVINRGQKDIEHKKTIREALENERKFFENHPSYSSKAHYCGTPYLAKKLNSILLHHIRQTLPEIKAKIEATLKKYQNELINLGPETMDSASSVVLSMITDFSNEYAGILDGEAKELSSQELSGGARISYVFHETFKNGVDSLDPFDQIKDSDIRTIMYNSSDSAPSLFVGTEAFEVLVKQQIRRFEEPSLRLVTLVFDELVRMLKQIISQPKYSRYPALREAISNQFIQFLKDATIPTNEFVVDIIKAEQTYINTAHPDLLKGSQAMVMVEEKLHPRQVAVDPKTGKPLPTQPSSSKAPVMEEKSGFFGGFFSTKNKKKLAALESPPPVLKATGQMTERETMETEVIKLLISSYFSIVKRTIADIIPKALMLKLIVKSKTDIQKVLLEKLYGKQDIEELTKENDITIQRRKECKKMVEILRNASQIVSSV
notes: Vps1, S. cerevisiae, with G436D made by site-directed mutagenesis of the pET15b construct; Same tags as m1; source: bacterially expressed, T7 Express (NEB), purified (Strep-trap HP or Streptactin XT)
Consider B3, for which the “stoichiometry N” value in data set [2] came to 2.

B4: Vps1(Δ3K) (enzyme, S. cerevisiae, UniProt P21576 1-704, looked up)
chain: MDEHLISTINKLQDALAPLGGGSQSPIDLPQITVVGSQSSGKSSVLENIVGRDFLPRGTGIVTRRPLVLQLINRRPKKSEHAKVNQTANELIDLNINDDDKKKDESGKHQNEGQSEDNKEEWGEFLHLPGKKFYNFDEIRKEIVKETDKVTGANSGISSVPINLRIYSPHVLTLTLVDLPGLTKVPVGDQPPDIERQIKDMLLKYISKPNAIILSVNAANTDLANSDGLKLAREVDPEGTRTIGVLTKVDLMDQGTDVIDILAGRVIPLRYGYIPVINRGQKDIEHKKTIREALENERKFFENHPSYSSKAHYCGTPYLAKKLNSILLHHIRQTLPEIKAKIEATLKKYQNELINLGPETMDSASSVVLSMITDFSNEYAGILDGEAKELSSQELSGGARISYVFHETFKNGVDSLDPFDQIKDSDIRTIMYNSSGSAPSLFVGTEAFEVLVKQQIRRFEEPSLRLVTLVFDELVRMLKQIISQPKYSRYPALREAISNQFIQFLKDATIPTNEFVVDIIKAEQTYINTAHPDLLKGSQAMVMVEEKLHPRQVAVDPKTGKPLPTQPSSSKAPVMEEKSGFFGGFFSTKNLAALESPPPVLKATGQMTERETMETEVIKLLISSYFSIVKRTIADIIPKALMLKLIVKSKTDIQKVLLEKLYGKQDIEELTKENDITIQRRKECKKMVEILRNASQIVSSV
notes: Vps1, S. cerevisiae, lacking the lysine-rich 3K motif (residues 591-593) of Insert B; Same tags as m1; source: bacterially expressed, T7 Express (NEB), purified (Strep-trap HP or Streptactin XT)
For the molecule B4, the “stoichiometry N” value in data set [2] was 4.
